Experimental data as given in the Human Domainome abundance scans (Beltran et al. 2025).
± gives the uncertainty stated by the source.

B1: Receptor-interacting serine/threonine-protein kinase 2, residues 438 to 518; numbered along this chain, O43353 (parent)
chain: QWIQSKREDIVNQMTEACLNQSLDALLSRDLIMKEDYELVSTKPTRTSKVRQLLDTTDIQGEEFAKVIVQKLKDNKQMGLQ

Variants of: B1
Assay: abundance fitness (aPCA) (normalised: wild type 0, dead -1); higher = more abundant; growth selection in yeast, the domain comes from the species named
Conditions: Homo sapiens

Row | Variant | abundance fitness
1 | QWIQSKREDIVNQMTEACLNQSLKALLSRDLIMKEDYELVSTKPTRTSKVRQLLDTTDIQGEEFAKVIVQKLKDNKQMGLQ | -0.328 ± 0.19
2 | QWIQSKREDIVNQMTEACLNQSLSALLSRDLIMKEDYELVSTKPTRTSKVRQLLDTTDIQGEEFAKVIVQKLKDNKQMGLQ | -0.19 ± 0.077
3 | QWIQSKREDIVNQMTEACLNQSLMALLSRDLIMKEDYELVSTKPTRTSKVRQLLDTTDIQGEEFAKVIVQKLKDNKQMGLQ | -0.719 ± 0.33
4 | QWIQSKREDIVNQMTEACLNQSLHALLSRDLIMKEDYELVSTKPTRTSKVRQLLDTTDIQGEEFAKVIVQKLKDNKQMGLQ | -0.574 ± 0.16
5 | QWIQSKREDIVNQMTEACLNQSLDALLSRDLIMKEDYELVSTKPTRPSKVRQLLDTTDIQGEEFAKVIVQKLKDNKQMGLQ | -0.228 ± 0.073
6 | QWIQSKREDIVNQMTEACLNQSLDALLSRDLIMKEDYELVSTKPTRHSKVRQLLDTTDIQGEEFAKVIVQKLKDNKQMGLQ | 0.111 ± 0.17
7 | QWIQSKREDIVNQMTEVCLNQSLDALLSRDLIMKEDYELVSTKPTRTSKVRQLLDTTDIQGEEFAKVIVQKLKDNKQMGLQ | 0.004 ± 0.067
8 | QWIQSKREDIVNQMTEKCLNQSLDALLSRDLIMKEDYELVSTKPTRTSKVRQLLDTTDIQGEEFAKVIVQKLKDNKQMGLQ | -0.072 ± 0.2
9 | QWIQSKREDIVNQMTEACLNQSLDALLSRDLIMKEDYELVSTKPTRTSKVRQLLDTVDIQGEEFAKVIVQKLKDNKQMGLQ | 0.046 ± 0.055
10 | QWIQSKVEDIVNQMTEACLNQSLDALLSRDLIMKEDYELVSTKPTRTSKVRQLLDTTDIQGEEFAKVIVQKLKDNKQMGLQ | -0.611 ± 0.085
11 | QWIQSKIEDIVNQMTEACLNQSLDALLSRDLIMKEDYELVSTKPTRTSKVRQLLDTTDIQGEEFAKVIVQKLKDNKQMGLQ | -0.838 ± 0.38
12 | QWIQSKREAIVNQMTEACLNQSLDALLSRDLIMKEDYELVSTKPTRTSKVRQLLDTTDIQGEEFAKVIVQKLKDNKQMGLQ | -0.288 ± 0.095
13 | QWIQSKREDIVNQMTEACLNQSLDALLSRDLIMKEDYELVSTKPTRTSKVRQLLDTTDIQGEEFAPVIVQKLKDNKQMGLQ | -0.471 ± 0.059
14 | QWIQSKREDIVNQMTEACLNQSLDALLSRDLIMKEEYELVSTKPTRTSKVRQLLDTTDIQGEEFAKVIVQKLKDNKQMGLQ | -0.147 ± 0.11
15 | QWIQSKREDIVNQMTEACLNQSLDALLSRDLIMKEVYELVSTKPTRTSKVRQLLDTTDIQGEEFAKVIVQKLKDNKQMGLQ | -0.587 ± 0.24
16 | QWIQSKREDIVNQMTEACLNQSLDALLSRDLIMKEQYELVSTKPTRTSKVRQLLDTTDIQGEEFAKVIVQKLKDNKQMGLQ | 0.121 ± 0.084
17 | QWIQSKREDIVNQMTEACLNQSLDALLSRDHIMKEDYELVSTKPTRTSKVRQLLDTTDIQGEEFAKVIVQKLKDNKQMGLQ | -0.448 ± 0.39

Row | Variant | abundance fitness
18 | QWIQSKREDIVNQMTEACLNQSLDALLSRDLIMKEDYELVSTYPTRTSKVRQLLDTTDIQGEEFAKVIVQKLKDNKQMGLQ | -1 ± 0.48
19 | QWIQSKREDIVNQMTEACLNQSLDALLSRDLIMKEDYELVSTKPTRTSKVRQLLDTTDIQGEEFAKVIVQVLKDNKQMGLQ | 0.151 ± 0.066
20 | QWIQSKREDIVNQMTEACLNQSLDALLSRDLIMKEDYELVSTKPTRTSKVRQLLDTTDIQGEEFAKVIVQYLKDNKQMGLQ | -0.204 ± 0.14
21 | QWIQSKREDIVNQMTEACLNQSLDALLSRDLIMKEDYELVSTKPTRTSKVRQLLDTTDIQGEEFAKVIVQLLKDNKQMGLQ | -0.289 ± 0.061
22 | QWIQSKREDIVNQMTEACLNQSLDALLSRDLIMKEDYELVSTKPTRTSKVRQLLDTTDIQREEFAKVIVQKLKDNKQMGLQ | -0.155 ± 0.054
23 | QWIQSKREDIVNQMTEACLNQSLDALLSRDLIMKEDYELVSTKPTRTSKVRQLLDTTDIQKEEFAKVIVQKLKDNKQMGLQ | 0.024 ± 0.19
24 | QWIQSKREDIVNQMTEACLNQSLDALLSRDLIMKEDYKLVSTKPTRTSKVRQLLDTTDIQGEEFAKVIVQKLKDNKQMGLQ | -0.216 ± 0.2
25 | QWIQSKREDIVNQMTEACLNQSLDALLSRDLIMKEDYELVSTKPTRTSKVRQLLCTTDIQGEEFAKVIVQKLKDNKQMGLQ | -0.122 ± 0.092
26 | QWIQSKRDDIVNQMTEACLNQSLDALLSRDLIMKEDYELVSTKPTRTSKVRQLLDTTDIQGEEFAKVIVQKLKDNKQMGLQ | 0.031 ± 0.24
27 | QWIQSKREDIVNQMTEACLNQSLDALLSRDLIMKEDYELVSTKPTRTSKVRQLGDTTDIQGEEFAKVIVQKLKDNKQMGLQ | -0.519 ± 0.045
28 | QWIQSKREDIVNQMTEACLVQSLDALLSRDLIMKEDYELVSTKPTRTSKVRQLLDTTDIQGEEFAKVIVQKLKDNKQMGLQ | -0.274 ± 0.11
29 | QWIQSKREDIVNQMTEACLNQSLDALLSRDLIMKEDYEPVSTKPTRTSKVRQLLDTTDIQGEEFAKVIVQKLKDNKQMGLQ | -0.635 ± 0.13
30 | QWIQSKREDIVNQMTEACLNQSLDALLSRDLIMKEDYELVSTKPTRTSKVRQLLDTTDIQGEEFAKDIVQKLKDNKQMGLQ | -0.453 ± 0.26
31 | QWIQSKREDIVNQMTEACLNQSLDKLLSRDLIMKEDYELVSTKPTRTSKVRQLLDTTDIQGEEFAKVIVQKLKDNKQMGLQ | -0.732 ± 0.15
32 | QWIQSKREDIVNQMTEACLNQSLDFLLSRDLIMKEDYELVSTKPTRTSKVRQLLDTTDIQGEEFAKVIVQKLKDNKQMGLQ | -0.052 ± 0.16
33 | QWIQSKREDIVNQMTEACLNQSLDALLSRDLIFKEDYELVSTKPTRTSKVRQLLDTTDIQGEEFAKVIVQKLKDNKQMGLQ | -0.555 ± 0.15
34 | QEIQSKREDIVNQMTEACLNQSLDALLSRDLIMKEDYELVSTKPTRTSKVRQLLDTTDIQGEEFAKVIVQKLKDNKQMGLQ | -0.438 ± 0.11
